From patent US20160279215A1, “NOVEL PEPTIDES AND COMBINATION OF PEPTIDES FOR USE IN IMMUNOTHERAPY AGAINST VARIOUS TUMORS” (immatics biotechnologies GmbH, priority 2015, published 2016)

Target: T1, HLA-A*02:01 (human)
T1 construct: MHC monomers captured on streptavidin plates; the UV-sensitive peptide is cleaved and exchanged with the test peptide; also called peptide-receptive MHC molecules; MHC class I
Test: UV ligand-exchange ELISA (anti-b2m); +++ = exchange yield >=50
Text: Candidate peptides for T cell based therapies according to the present invention were further tested for their MHC binding capacity (affinity). The individual peptide-MHC complexes were produced by UV-ligand exchange, where a UV-sensitive peptide is cleaved upon UV-irradiation, and exchanged with the peptide of interest as analyzed. Only peptide candidates that can effectively bind and stabilize the peptide-receptive MHC molecules prevent dissociation of the MHC complexes. To determine the yield of the exchange reaction, an ELISA was performed based on the detection of the light chain (β2m) of stabilized MHC complexes. The assay was performed as generally described in Rodenko et al. (Rodenko et al., 2006).
96 well MAXISorp plates (NUNC) were coated over night with 2 ug/ml streptavidin in PBS at room temperature, washed 4× and blocked for 1 h at 37° C. in 2% BSA containing blocking buffer. Refolded HLA-A*02:01/MLA-001 monomers served as standards, covering the range of 15-500 ng/ml. Peptide-MHC monomers of the UV-exchange reaction were diluted 100 fold in blocking buffer. Samples were incubated for 1 h at 37° C., washed four times, incubated with 2 ug/ml HRP conjugated anti-β2m for 1 h at 37° C., washed again and detected with TMB solution that is stopped with […]. Absorption was measured at 450 nm. Candidate peptides that show a high exchange yield (preferably higher than 50%, most preferred higher than 75%) are generally preferred for a generation and production of antibodies or fragments thereof, and/or T cell receptors or fragments thereof, as they show sufficient avidity to the MHC molecules and prevent dissociation of the MHC complexes.

A peptide exchange yield of 50 to 75% was found for TLGEIIKGV in this work.

A peptide exchange yield of 50 to 75% was found for LLDDIFIRL in this work.

A peptide exchange yield of 50 to 75% was found for RLIDIYKNV in this work.

A peptide exchange yield of 50 to 75% was found for SLYPHFTLL in this work.

A peptide exchange yield of 50 to 75% was found for ILAVDGVLSV in this work.

A peptide exchange yield of 50 to 75% was found for QLYGSAITL in this work.

A peptide exchange yield of 50 to 75% was found for SLLDLVQSL in this work.

A peptide exchange yield of 50 to 75% was found for ALSYILPYL in this work.

A peptide exchange yield of 50 to 75% was found for SLLDYEVSI in this work.

A peptide exchange yield of 50 to 75% was found for AALEVLAEV in this work.

A peptide exchange yield of 50 to 75% was found for SIIDTELKV in this work.

A peptide exchange yield of 50 to 75% was found for ALFHMNILL in this work.

A peptide exchange yield of 50 to 75% was found for YTFSGDVQL (also called MMP1-003) in this work.

A peptide exchange yield of 50 to 75% was found for MLIIRVPSV in this work.

A peptide exchange yield of 50 to 75% was found for KLVELEHTL (also called CT83-001) in this work.

A peptide exchange yield of 50 to 75% was found for SLSTELFKV in this work.

A peptide exchange yield of 50 to 75% was found for GLAGDNIYL in this work.

A peptide exchange yield of 50 to 75% was found for GLLGNLLTSL in this work.

A peptide exchange yield of 50 to 75% was found for AQLEGKLVSI in this work.

A peptide exchange yield of 50 to 75% was found for YLMDDFSSL (also called COL6A3-015) in this work.

A peptide exchange yield of 50 to 75% was found for QLGPVPVTI in this work.

A peptide exchange yield of 50 to 75% was found for VIFEGEPMYL (also called HORMAD1-001) in this work.

A peptide exchange yield of 50 to 75% was found for VLLDMVHSL in this work.

A peptide exchange yield of 50 to 75% was found for ALFETLIQL in this work.

A peptide exchange yield of 50 to 75% was found for RVIDDSLVVGV in this work.

A peptide exchange yield of 50 to 75% was found for QLREAFEQL in this work.

A peptide exchange yield of 50 to 75% was found for ALINVLNAL in this work.

A peptide exchange yield of 50 to 75% was found for ALLNNVIEV in this work.

A peptide exchange yield of 50 to 75% was found for KLFETVEEL in this work.

A peptide exchange yield of 50 to 75% was found for SLFESLEYL (also called ZFP42-001) in this work.

A peptide exchange yield of 50 to 75% was found for LVVDEGSLVSV (also called …) in this work.

A peptide exchange yield of 50 to 75% was found for IMPTFDLTKV in this work.

A peptide exchange yield of 50 to 75% was found for KVWSDVTPL (also called MMP-002) in this work.

A peptide exchange yield of 50 to 75% was found for KMSELQTYV in this work.

A peptide exchange yield of 50 to 75% was found for SLADLSLLL in this work.

A peptide exchange yield of 50 to 75% was found for ALADLSVAV in this work.

A peptide exchange yield of 50 to 75% was found for LLWDAPAKC in this work.

A peptide exchange yield of 50 to 75% was found for YLDPLWHQL in this work.

A peptide exchange yield of 50 to 75% was found for MLWESIMRV in this work.

A peptide exchange yield of 50 to 75% was found for TLQEWLTEV in this work.

A peptide exchange yield of 50 to 75% was found for YLILSSHQL in this work.

A peptide exchange yield of 50 to 75% was found for ALHPVQFYL in this work.

A peptide exchange yield of 50 to 75% was found for LLWAPTAQA in this work.

A peptide exchange yield of 50 to 75% was found for ALLSPLSLA in this work.

A peptide exchange yield of 50 to 75% was found for LLFDWSGTGRADA in this work.

A peptide exchange yield of 50 to 75% was found for ILAQDVAQL in this work.

A peptide exchange yield of 50 to 75% was found for ALSELERVL in this work.

A peptide exchange yield of 50 to 75% was found for LLWPSSVPA in this work.

A peptide exchange yield of 50 to 75% was found for LLTTVLINA in this work.

A peptide exchange yield of 50 to 75% was found for GLQDGFQITV in this work.

A peptide exchange yield of 50 to 75% was found for VIIQNLPAL in this work.

A peptide exchange yield of 50 to 75% was found for RLLDPKTIFL in this work.

A peptide exchange yield of 50 to 75% was found for SLLELDGINLRL in this work.

A peptide exchange yield of 50 to 75% was found for FLISQTPLL in this work.

A peptide exchange yield of 50 to 75% was found for AAIEIFEKV in this work.

A peptide exchange yield of 50 to 75% was found for LMYPYIYHV in this work.

A peptide exchange yield of 50 to 75% was found for RLYEEEIRI in this work.

A peptide exchange yield of 50 to 75% was found for SEWGSPHAAVP in this work.

A peptide exchange yield of 50 to 75% was found for IILENIQSL in this work.

A peptide exchange yield of 50 to 75% was found for KLLNMIFSI in this work.

A peptide exchange yield of 50 to 75% was found for SLAGNLQEL in this work.

A peptide exchange yield of 50 to 75% was found for LLGDSSFFL in this work.

A peptide exchange yield of 50 to 75% was found for FLDSQITTV in this work.

A peptide exchange yield of 50 to 75% was found for ALEEKLENV in this work.

A peptide exchange yield of 50 to 75% was found for FLPQPVPLSV in this work.

A peptide exchange yield of 50 to 75% was found for GLLSALENV in this work.

A peptide exchange yield of 50 to 75% was found for RLHDENILL in this work.
